Experimental data as given in the supplement of paper PMC11865577.

Key:
Experiment in all cases: pull-down binding Z-score (relative to library population); higher = stronger binding
[1] = test system: TO-3-N3 (biotin conjugate); conditions: RNA library: Library-2
How it was run: (§1)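 To score binding, a beads-only signal was subtracted, barcoded replicate probes were averaged with the highest and lowest dropped, and the value was converted to a Z-score using the library mean and standard deviation. The input was 1 μg of Cy5- or Cy3-end-labelled RNA library, heat-folded in phosphate/NaCl/KCl buffer and mixed for 60 min at 25 °C with streptavidin beads carrying 100 pmol of biotin-conjugated small molecule. Bound RNA was eluted in hot SDS and hybridised to a DNA barcode microarray at 55.5 °C for 20 h.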

[2] = test system: TO-3-N3-2 (biotin conjugate); conditions: RNA library: Library-2
How it was run: as §1

[3] = test system: TO-N3-2 (biotin conjugate); conditions: RNA library: Library-2
How it was run: as §1

TO-N3 (biotin conjugate) = conditions: RNA library: Library-2
How it was run: as §1

[4] = test system: G-clamp-N3 (biotin conjugate); conditions: RNA library: Library-1 (pre-miRNA loops + repeats)
How it was run: as §1

Row | Sequence | pull-down binding Z-score [1] | pull-down binding Z-score [2] | pull-down binding Z-score [3] | pull-down binding Z-score (TO-N3 (biotin conjugate)) | pull-down binding Z-score [4]
1 | CACUACAAGAAGAAUGUAGUUGUG [hsa-mir-19a] | -0.108 | 0.234 | 0.739 | -0.154 | 1.3
2 | AUCUGCAGGGCAUUGUGCUAACAGGU [hsa-mir-4681] | 0.532 | 0.211 | 0.0756 | 0.644 | 1.35
3 | UGGGUUGAACUGUGUGGACAAGCUCA [hsa-mir-181b-1] | -0.111 | -0.042 | 0.631 | 0.366 | -0.166
4 | ACCACCCAGGCCUUAUGGCUUCAUA [hsa-mir-7974] | -0.102 | -0.0756 | 0.0927 | 0.233 | -1.68
5 | UUUUUUUCGCUUUAUUUGUGACGAAAC [hsa-mir-543] | -0.674 | -0.278 | -0.882 | -0.856 | -0.305
6 | GGGCGGAACACCCAGCCCC [hsa-mir-4417] | -0.4 | -0.246 | 0.785 | -0.21 | -1.31
7 | CAUGCAGGCCACACUGACGGUAACGUUGCAGG [hsa-mir-431] | 0.647 | 0.263 | 1.01 | 1.08 | 1.54
8 | GGAAUAGUGCUCCUGGUUGUUUC [hsa-mir-1180] | -0.548 | -0.353 | 0.243 | -0.303 | 0.894
9 | UGUCAUUGAAAGUAAUAGCA [hsa-mir-548h-3] | -0.165 | -0.0124 | -0.319 | -0.141 | -1.07
10 | AGGUUGGCUGGGCCAGGCCUGACCU [hsa-mir-4722] | 0.0532 | -0.00273 | 1.16 | 0.435 | 0.156
11 | UGGGUAGAAAGUAUUAUUCUAUUCA [hsa-mir-664b] | 0.0201 | -0.0975 | -0.83 | -0.28 | -0.0123
12 | CACAAGACUAGGCUUCCCUGUG [hsa-mir-3152] | 0.212 | 0.0303 | -0.0548 | 0.13 | -0.785
13 | UUUAGAUUUAAAUAGUGAUUGUCUAG [hsa-mir-29b-1] | 0.267 | -0.0424 | -0.27 | 0.194 | 0.526
14 | CUAUGGCCCCCCUCCUCUCUGAAAGCAAGGCCACUUG [hsa-mir-8081] | 0.3 | 0.282 | 0.982 | 0.738 | -1.13
15 | UUAACAUGUUGAGCAUUACUCAUGUUAG [hsa-mir-3684] | -0.527 | -0.175 | -0.162 | -0.597 | -0.319
16 | CUCACCAUAGUGGUGGA [hsa-mir-1288] | -0.33 | -0.646 | -0.588 | -0.412 | -1.2
17 | CCAUGCAACAUUUGG [hsa-mir-1302-4] | -0.262 | -0.327 | -0.696 | -0.359 | 0.29
18 | UGAGGUACUUCCUUC [hsa-mir-1205] | 0.111 | -0.247 | -0.169 | 0.104 | -0.28
19 | AUGAUUUUUGGGGUCA [hsa-mir-4678] | -0.0616 | -0.1 | -0.328 | -0.0941 | 1.23

Row | Sequence | pull-down binding Z-score [1] | pull-down binding Z-score [2] | pull-down binding Z-score [3] | pull-down binding Z-score (TO-N3 (biotin conjugate)) | pull-down binding Z-score [4]
20 | UGAUUUGUGACUUAAGAUUAAAAUCA [hsa-mir-23b] | -0.415 | 0.0381 | -0.649 | -0.499 | -0.478
21 | CCCUUGUCUUCCCAGAG [hsa-mir-4739] | -0.28 | -0.41 | -0.0951 | -0.358 | -1.22
22 | AGUCACUUAGAUUACAUGUGACU [hsa-mir-888] | 0.0487 | -0.513 | -0.915 | -0.368 | 0.394
23 | CUUUAGCUAUUCUGAAUGCCUAAAG [hsa-mir-4662a] | -0.298 | -0.236 | -0.393 | -0.375 | -0.469
24 | GGCUGUGAGCUCUAGCAAUGCCC [hsa-mir-146b] | 0.251 | 0.158 | 1.31 | 0.59 | -0.867
25 | GGGGCUGAGGCUGAGUCUUCCUCCC [hsa-mir-6756] | 0.154 | 0.101 | 1.53 | 0.806 | 0.713
26 | CAGUGAGCCAAGAUCGUGCCACUG [hsa-mir-1273d] | -0.172 | -0.179 | -0.0234 | -0.147 | -0.48
27 | CUACUCAAGGCUAG [hsa-mir-4266] | 1.32 | 0.132 | -0.0352 | 1.35 | -0.163
28 | UGAACAGUGAUUGGUUUCCGCUUUGUUCA [hsa-mir-27b] | 0.138 | 0.275 | -0.317 | 0.133 | -0.672
29 | UGCGUUAGGAUUUCUGUAUCAUCCUCCUAACGCA [hsa-mir-3166] | 0.576 | 0.141 | -0.758 | 0.306 | 0.901
30 | AGAUCCUGUCUUUCGUAAUCAGCAGCU [hsa-mir-222] | 0.279 | 0.00116 | 0.228 | 0.344 | -0.246
31 | CGGUCCCAUAUUGAACUCG [hsa-mir-4444-1_4444-2] | -0.626 | -0.418 | -0.109 | -0.4 | -1.03
32 | GAGUUUGGGCAGCUCAGGCAAACC [hsa-mir-181c] | -0.201 | 0.132 | 1.12 | 0.492 | 0.335
33 | CAGGGGUUCUGAUAAACCCUUC [hsa-mir-6738] | 0.622 | -0.3 | 0.161 | 0.458 | -0.182
34 | ACCUCCUGGCUUUUCCUCUGCAGCAUGGCUCGGACCUAGUGCAAUGUUUAAGCU [hsa-mir-6826] | 0.104 | 0.506 | 0.769 | 0.659 | -0.435
35 | AGACAGCCUGAGUUGGAGGCUCAUCUUCACUUCUUGCUGUGU [hsa-mir-3168] | 0.0963 | -0.221 | 0.168 | 0.262 | -0.917
36 | GGUUCUGGGGUGUAGACGCUGCUGGCCAGCC [hsa-mir-4707] | 0.287 | 0.282 | 0.971 | 0.587 | 1.08
37 | UGUGCCUGCCUUCGAAGUGCACGGCAGG [hsa-mir-4297] | 0.105 | 0.00697 | 0.753 | 0.519 | -0.529
38 | GUCCGGGUGGGUUCCGGCA [hsa-mir-657] | 1.07 | 1.29 | 2.1 | 1.33 | -2.05

Row | Sequence | pull-down binding Z-score [1] | pull-down binding Z-score [2] | pull-down binding Z-score [3] | pull-down binding Z-score (TO-N3 (biotin conjugate)) | pull-down binding Z-score [4]
39 | GUCCCAAUACAUGUGGGCC [hsa-mir-586] | -0.000511 | -0.158 | -0.294 | -0.22 | -0.0916
40 | CUGGGAGGUGUGAUAUCGUGGUUCCUGG [hsa-mir-3689c] | 1.02 | 0.136 | 0.744 | 1.13 | 0.718
41 | UUCUCUUUAUUUAUGAUGAA [hsa-mir-494] | -0.968 | -0.639 | -1.8 | -1.56 | -1.25
42 | GACCCCCAUGCACCCCUGUGGGCCCCUGGCAUC [hsa-mir-1257] | 0.219 | -0.0626 | 1.21 | 0.727 | -1.71
43 | UCCUCAGACCAGGUGGCUCCCGAGCCACCCCAGGCUGUAGG [hsa-mir-2392] | -0.0269 | -0.183 | 1.75 | 0.743 | -1.09
44 | GUCACUGUCUCAAAUCAGUGAC [hsa-mir-549a] | 0.183 | -0.427 | -1.33 | -0.129 | -0.711
45 | GUGGGUUGUGAGGACUGAGGCCAGACCCAC [hsa-mir-181d] | -0.504 | -0.244 | 0.803 | -0.139 | 1.5
46 | ACCAUAGUCAUAAGUUAGGAGAUGUUAGAGCUGUGAGU [hsa-mir-4286] | -0.464 | 0.296 | 0.807 | -0.108 | 0.233
47 | UUUGCGUUACUUUCAAUCGUAAA [hsa-mir-548x] | -1.01 | -0.253 | -1.46 | -1.13 | -0.79
48 | AGUUUCUGGAAUGUCAGAACUUCCAGAAACU [hsa-mir-3199-2] | 0.748 | 0.034 | -0.865 | 0.392 | -0.327
49 | CCCAAGCAGGCUUUGUGUGAGCAGUGAGGCUAUUUAUUCACUUGGGUGCGAGCUCACACGAAGCCUGCUUGGG [hsa-mir-6839] | 0.33 | 0.815 | 0.665 | 0.551 | 1.44
50 | CCGUGCCCUGGCCACUCAUUCGG [hsa-mir-6741] | 0.294 | 0.133 | 1.1 | 0.45 | -0.0927
51 | AGUGCAGUAUGGUGAAGUCAAUCUGUAAU [hsa-mir-590] | -0.357 | 0.0335 | 0.424 | -0.148 | 1.31
52 | CCUCAAUCACUUGCCAGAGAGAUUGG [hsa-mir-1200] | 0.0255 | -0.188 | -0.136 | -0.196 | -1.09
53 | UGGAAGCUCCAGGUGCCAACCACCUGCCUCUA [hsa-mir-6731] | 0.00854 | -0.134 | 0.456 | 0.231 | -0.826
54 | CAUUCACAUAGACUAUAAUUGAAUG [hsa-mir-652] | -0.751 | -0.353 | -0.703 | -0.944 | 0.721
55 | GGUUCUUCCCGAAGC [hsa-mir-4710] | -0.0117 | -0.22 | -0.359 | 0.0409 | 0.205
56 | GUCUGCCAAGGUUUUGGCAGAC [hsa-mir-3913-2] | -0.58 | -0.539 | -1.2 | -0.992 | 0.558
57 | GAUGCUGUAUAUCUGAAAGGUAC [hsa-mir-101-2] | -0.357 | -0.144 | 0.383 | -0.126 | -0.649
